The text below walks through data of paper PMC4771647, “Improving the thermostability and stress tolerance of an archaeon hyperthermophilic superoxide dismutase by fusion with a unique N-terminal domain” (SpringerPlus, 2016).

Where “and” joins values, the source holds several entries; their conditions need not be identical. Identical values can stand only once.

As usually defined, the stoichiometry N is the number of molecules, sites or subunits per partner or assembly.

Series [1] has as its target rSODSs, fusion of the N-terminal domain (NTD) of SOD NG2215 of Geobacillus thermodenitrificans NG80-2 with SODSs (Geobacillus thermodenitrificans NG80-2 | Sulfolobus solfataricus). The experiment in a line: AUC; sedimentation velocity, interference data, 36,000 rpm, An-60 Ti rotor, 4 °C; 50 mM potassium phosphate buffer plus 150 mM NaCl, pH 8.0; continuous c(s) distribution (SEDFIT).

Series [2] concerns the molecule itself. The description is as above.

On to “rSODSs, fusion of the N-terminal domain (NTD) of SOD NG2215 of Geobacillus thermodenitrificans NG80-2 with SODSs (enzyme)”, for which the stoichiometry N in series [1] is 4 and 2.

B1: superoxide dismutase from the archaeon Sulfolobus solfataricus (SODSs) (enzyme, UniProt P80857 1-211, looked up)
chain: MTLQIQFKKYELPPLPYKIDALEPYISKDIIDVHYNGHHKGYVNGANSLLERLEKVVKGDLQTGQYDIQGIIRGLTFNINGHKLHALYWENMAPSGKGGGKPGGALADLINKQYGSFDRFKQVFTETANSLPGTGWAVLYYDTESGNLQIMTFENHFQNHIAEIPIILILDEFEHAYYLQYKNKRADYVNAWWNVVNWDAAEKKLQKYLTK
notes: Fe superoxide dismutase (SODSs) of Sulfolobus solfataricus; gene synthesised into pET-28a (pET-SODSs); expected size 24.2 kDa; Tetramer by analytical ultracentrifugation (major peak), with small quantities of dimers; also called Fe-SODSs; native SODSs
As to B1, the “stoichiometry N” value in series [2] is 4 and 2.
